Measured values published in publication PMC8809517, “Cofactor-independent RNA editing by a synthetic S-type PPR protein”.

Assays:
Assay in all cases: high-throughput RNA pulldown from lysate on Ni-NTA beads; HRP: 50 mM Tris pH 8, 150 mM NaCl, 1 mM beta-mercaptoethanol, 50 ug/ml BSA, 3 ug/ml yeast RNA, 0.5% heparin; ITC and FP: Tris pH 8, 200 mM KCl, 5% glycerol; MST: 50 mM Tris pH 8, 200 mM NaCl, 1 mM DTT, BSA, heparin, 0.05% Tween 20
Conditions in all cases: tags: N-terminal His-eGFP
[1] = molecular target: T1, GFP-9S library array, motif 4 ND N98C;D124C (synthetic construct, N98C;D124C)
T1 chain: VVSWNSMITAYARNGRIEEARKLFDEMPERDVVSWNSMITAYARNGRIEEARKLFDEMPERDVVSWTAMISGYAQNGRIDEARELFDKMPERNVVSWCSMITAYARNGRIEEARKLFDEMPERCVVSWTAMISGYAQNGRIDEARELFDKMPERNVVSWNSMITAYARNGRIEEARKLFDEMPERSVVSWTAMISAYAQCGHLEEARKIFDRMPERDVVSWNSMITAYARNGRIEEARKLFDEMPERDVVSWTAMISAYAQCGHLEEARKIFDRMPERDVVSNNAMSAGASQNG

[2] = molecular target: T2, GFP-9S library array, motif 4 ND N98T;D124A (synthetic construct, N98T;D124A)
T2 chain: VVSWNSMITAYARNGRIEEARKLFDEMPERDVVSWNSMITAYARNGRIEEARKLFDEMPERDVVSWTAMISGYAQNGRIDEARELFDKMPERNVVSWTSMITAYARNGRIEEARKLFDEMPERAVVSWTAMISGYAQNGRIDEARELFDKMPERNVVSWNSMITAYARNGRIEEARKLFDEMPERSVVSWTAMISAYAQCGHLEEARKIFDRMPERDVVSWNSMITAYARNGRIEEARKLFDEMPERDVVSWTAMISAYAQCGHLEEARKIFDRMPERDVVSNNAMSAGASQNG

[3] = molecular target: T3, GFP-9S library array, motif 4 ND N98R;D124R (synthetic construct, N98R;D124R)
T3 chain: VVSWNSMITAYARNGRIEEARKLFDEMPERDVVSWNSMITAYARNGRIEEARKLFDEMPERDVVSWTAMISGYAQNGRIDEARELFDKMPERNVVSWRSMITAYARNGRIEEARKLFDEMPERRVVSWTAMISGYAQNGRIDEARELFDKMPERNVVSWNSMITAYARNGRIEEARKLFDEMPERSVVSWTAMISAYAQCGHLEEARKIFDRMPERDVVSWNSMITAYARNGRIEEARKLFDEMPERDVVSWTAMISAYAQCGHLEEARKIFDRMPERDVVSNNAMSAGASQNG

[4] = molecular target: T4, GFP-9S library array, motif 4 ND N98K;D124K (synthetic construct, N98K;D124K)
T4 chain: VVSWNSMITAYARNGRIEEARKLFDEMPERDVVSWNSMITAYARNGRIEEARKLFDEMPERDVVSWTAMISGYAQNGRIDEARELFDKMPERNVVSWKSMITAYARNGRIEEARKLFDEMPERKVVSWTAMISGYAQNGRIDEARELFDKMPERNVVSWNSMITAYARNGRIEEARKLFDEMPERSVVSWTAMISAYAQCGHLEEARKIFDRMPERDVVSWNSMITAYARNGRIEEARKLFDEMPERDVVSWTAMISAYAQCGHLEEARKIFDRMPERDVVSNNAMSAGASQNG

[5] = molecular target: T5, GFP-9S library array, motif 4 ND N98D;D124P (synthetic construct, N98D;D124P)
T5 chain: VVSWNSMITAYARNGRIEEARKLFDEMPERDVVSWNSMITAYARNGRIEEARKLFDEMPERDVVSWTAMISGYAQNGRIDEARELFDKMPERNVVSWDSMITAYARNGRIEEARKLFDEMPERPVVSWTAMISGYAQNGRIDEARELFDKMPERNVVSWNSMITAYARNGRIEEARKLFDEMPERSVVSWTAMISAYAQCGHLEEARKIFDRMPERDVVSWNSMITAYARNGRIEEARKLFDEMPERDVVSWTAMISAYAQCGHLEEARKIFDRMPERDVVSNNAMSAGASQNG

Row | Binder | Kd ([1]; label: 5' IRDye 800CW) | Kd ([2]; label: 5' IRDye 800CW) | Kd ([3]; label: 5' IRDye 800CW) | Kd ([4]; label: 5' IRDye 800CW) | Kd ([5]; label: 5' IRDye 800CW) | Kd ([1]; label: 5' Cy5) | Kd ([2]; label: 5' Cy5) | Kd ([3]; label: 5' Cy5) | Kd ([4]; label: 5' Cy5) | Kd ([5]; label: 5' Cy5)
1 | AUUAUACGUGA (ssRNA) [IR-rpoA-U] | 243 nM | 173 nM | 97.9 nM | 83.8 nM | 501 nM |  |  |  |  | 
2 | AUUACACGUGA (ssRNA) [Cy5-rpoA] |  |  |  |  |  | 264 nM | 107 nM | 97.6 nM | 102 nM | 202 nM
3 | AUUAGACGUGA (ssRNA) [Cy5-rpoA-G] |  |  |  |  |  | 70.5 nM | 70.1 nM | 53.3 nM | 119 nM | 157 nM
4 | AUUAAACGUGA (ssRNA) [IR-rpoA-A] | 43.7 nM | 52.8 nM | 82 nM | 254 nM | 341 nM |  |  |  |  | 
